Consider 19 molecules from patent US20220088180A1.

Read-outs that look alike come from different tables or passages of the source.

Targets include HLA-A*02:01 (human); HLA-B*15:01 (human); HLA-B*07:02 (human); HLA-A*01:01 (human); HLA-B*18:01 (human); HLA-B*51:01 (human); HLA-B*44:03 (human); HLA-A*26:01 (human); HLA-B*44:02 (human).
What all share (experiment): radioligand competition, purified MHC
For orientation: Displacement assays read how much labelled ligand stays bound in the presence of the test substance.

Where [1] appears, read: remark: other sources report otherwise.

What is called IC50 is the midpoint of a concentration-inhibition curve. Read a low IC50 as greater potency in that assay. Consider SLEDKAFQL (modifications not checked) [… (SEQ ID NO: 7)], for which the results for the IC50 with HLA-A*02:01 (human) and with HLA-B*15:01 (human) were 0.02 µM and 1.58 µM, respectively.

As for LATNNLVVM (modifications not checked) [… (SEQ ID NO: 16)], the IC50 with HLA-B*07:02 (human) is 0.055 µM; with HLA-A*01:01 (human), over 70 µM; in the assay with HLA-B*18:01 (human) it was over 70 µM; with HLA-B*51:01 (human), 32.7 µM; with HLA-B*44:03 (human), 46.5 µM; with HLA-A*02:01 (human), over 70 µM. Besides, the IC50 was 0.315 µM in the assay with HLA-B*15:01 (human), over 70 µM with HLA-A*26:01 (human) and 40.2 µM in the assay with HLA-B*44:02 (human).

For the molecule SEFSSLPSY (modifications not checked) [… (SEQ ID NO: 27)], the IC50 is over 70 µM with HLA-B*07:02 (human); 39.8 µM with HLA-A*01:01 (human); 0.00037 µM in the assay with HLA-B*18:01 (human); over 70 µM with HLA-B*51:01 (human); over 70 µM with HLA-A*02:01 (human); 0.0069 µM in the assay with HLA-B*15:01 (human). In the assay with HLA-A*26:01 (human), this molecule displayed an IC50 of 0.875 µM.

Turning to HADQLTPTW (modifications not checked) [… (SEQ ID NO: 35)], the IC50 with HLA-B*18:01 (human) is 3.35 µM; with HLA-B*44:03 (human) it was 1.8 µM; with HLA-B*15:01 (human), 13.4 µM; with HLA-B*44:02 (human), 5.26 µM.

For KNIDGYFKIY (modifications not checked) [… (SEQ ID NO: 36)], the concentration for half-maximal inhibition (IC50) in the assay with HLA-B*07:02 (human) is over 70 µM; with HLA-A*01:01 (human), over 70 µM; in the assay with HLA-B*18:01 (human), over 70 µM; with HLA-B*51:01 (human), over 70 µM; with HLA-B*44:03 (human), over 70 µM; with HLA-A*02:01 (human), 11.8 µM. Further, the values for the half-inhibitory concentration (IC50) with HLA-B*15:01 (human), with HLA-A*26:01 (human) and with HLA-B*44:02 (human) were 1.45 µM, over 70 µM and over 70 µM, respectively.

On to APHGHVMVEL (modifications not checked) [… (SEQ ID NO: 14)], for which the IC50 in the assay with HLA-B*07:02 (human) is 0.0061 µM; in the assay with HLA-A*01:01 (human), over 70 µM; in the assay with HLA-B*18:01 (human), over 70 µM; with HLA-B*51:01 (human), over 70 µM; with HLA-B*44:03 (human) it was over 70 µM; with HLA-A*02:01 (human), over 70 µM. The half-maximal inhibitory concentration (IC50) in the assay with HLA-B*15:01 (human), with HLA-A*26:01 (human) and with HLA-B*44:02 (human) was over 70 µM throughout.

In the case of VGYLQPRTF (modifications not checked) [… (SEQ ID NO: 39)], the IC50 with HLA-B*07:02 (human) was over 70 µM; in the assay with HLA-A*01:01 (human), over 70 µM; with HLA-B*18:01 (human), 0.707 µM; with HLA-B*44:03 (human), over 70 µM; with HLA-A*02:01 (human), over 70 µM; with HLA-B*15:01 (human), 0.777 µM. Also, the concentration for half-maximal inhibition (IC50) with HLA-A*26:01 (human) and with HLA-B*44:02 (human) was over 70 µM each time.

On to LEDKAFQL (modifications not checked) [LEDKAFQL (SEQ ID NO: 10)], for which the half-maximal inhibitory concentration (IC50) in the assay with HLA-B*18:01 (human) is 0.035 µM; with HLA-B*44:03 (human), 0.208 µM; with HLA-A*02:01 (human), 3.89 µM; with HLA-B*15:01 (human), 14.7 µM; in the assay with HLA-B*44:02 (human) it was 35.4 µM.

As for FGDDTVIEV (modifications not checked) [… (SEQ ID NO: 23)], the IC50 in the assay with HLA-B*07:02 (human) is over 70 µM; with HLA-A*01:01 (human) (setting [1]) it was over 70 µM; with HLA-B*18:01 (human) (setting [1]), over 70 µM; with HLA-B*51:01 (human) (setting [1]), 45.7 µM; with HLA-B*44:03 (human) (setting [1]), over 70 µM; with HLA-B*15:01 (human) (setting [1]) it was 2.38 µM. The IC50 in the assay with HLA-A*26:01 (human) (setting [1]) and with HLA-B*44:02 (human) (setting [1]) was over 70 µM throughout.

As to YLNSTNVTI (modifications not checked) [… (SEQ ID NO: 24)], the 50% inhibitory concentration (IC50) is 7.93 µM with HLA-B*07:02 (human); 3.62 µM with HLA-B*51:01 (human); 49.6 µM in the assay with HLA-B*44:03 (human); 0.012 µM with HLA-A*02:01 (human); 0.0012 µM in the assay with HLA-B*15:01 (human).

MLLGSMLYM (modifications not checked) [… (SEQ ID NO: 4)]: the IC50 in the assay with HLA-B*51:01 (human) is 7.87 µM; with HLA-A*02:01 (human), under 0.0005 µM; with HLA-B*15:01 (human), 0.0011 µM; with HLA-A*26:01 (human), 45.5 µM; in the assay with HLA-B*44:02 (human) it was 18.9 µM.

Consider IRQEEVQEL (modifications not checked) [… (SEQ ID NO: 31)], for which the half-maximal inhibitory concentration (IC50) in the assay with HLA-B*07:02 (human), in the assay with HLA-A*01:01 (human), with HLA-B*18:01 (human), in the assay with HLA-B*51:01 (human), with HLA-B*44:03 (human) and with HLA-A*02:01 (human) was over 70 µM in each case. The half-maximal inhibitory concentration (IC50) with HLA-B*15:01 (human), with HLA-A*26:01 (human) and with HLA-B*44:02 (human) was over 70 µM in each case.

On to GPMVLRGLIT (modifications not checked) [… (SEQ ID NO: 6)], for which the concentration for half-maximal inhibition (IC50) with HLA-A*02:01 (human) was 2 µM; in the assay with HLA-B*15:01 (human), 8.55 µM; with HLA-A*26:01 (human), 0.884 µM.

EIKESVQTF (modifications not checked) [… (SEQ ID NO: 15)]: the IC50 in the assay with HLA-B*07:02 (human), with HLA-A*01:01 (human), with HLA-B*18:01 (human), in the assay with HLA-B*51:01 (human), in the assay with HLA-B*44:03 (human) and with HLA-A*02:01 (human) was over 70 µM throughout. Also, the 50% inhibitory concentration (IC50) was 4.93 µM with HLA-B*15:01 (human), 0.0078 µM with HLA-A*26:01 (human) and 37.2 µM with HLA-B*44:02 (human).

On to QLTPTWRVY (modifications not checked) [… (SEQ ID NO: 38)], for which the IC50 with HLA-B*07:02 (human), in the assay with HLA-A*01:01 (human), in the assay with HLA-B*18:01 (human), in the assay with HLA-B*51:01 (human), in the assay with HLA-B*44:03 (human) and with HLA-A*02:01 (human) was over 70 µM each time. Besides, the IC50 was 0.011 µM with HLA-B*15:01 (human), over 70 µM with HLA-A*26:01 (human) and over 70 µM with HLA-B*44:02 (human).

For the molecule STSAFVETV (modifications not checked) [… (SEQ ID NO: 19)], the half-inhibitory concentration (IC50) with HLA-B*07:02 (human) is 8.86 µM; in the assay with HLA-A*01:01 (human), 12.7 µM; with HLA-B*18:01 (human), over 70 µM; with HLA-B*51:01 (human) it was over 70 µM; with HLA-B*44:03 (human) it was over 70 µM; with HLA-A*02:01 (human), 0.026 µM. Further, the results for the concentration for half-maximal inhibition (IC50) with HLA-B*15:01 (human), with HLA-A*26:01 (human) and with HLA-B*44:02 (human) were 10.4 µM, 12.1 µM and over 70 µM, respectively.

Regarding GLITLSYHL (modifications not checked) [… (SEQ ID NO: 5)], the IC50 is 14.3 µM in the assay with HLA-B*07:02 (human); 24.3 µM with HLA-B*44:03 (human); under 0.0005 µM with HLA-A*02:01 (human); 1.5 µM with HLA-B*15:01 (human); 40.3 µM with HLA-A*26:01 (human); 26 µM with HLA-B*44:02 (human).

Regarding DEFVVVTV (modifications not checked) [DEFVVVTV (SEQ ID NO: 11)], the half-maximal inhibitory concentration (IC50) with HLA-B*07:02 (human) is 52.8 µM; with HLA-A*01:01 (human), over 70 µM; with HLA-B*18:01 (human), under 0.0005 µM; with HLA-B*51:01 (human) it was 12.8 µM; with HLA-B*44:03 (human), 1.28 µM; with HLA-A*02:01 (human) it was 13 µM. Also, the IC50 amounted to 2.05 µM with HLA-B*15:01 (human), 9.55 µM with HLA-A*26:01 (human) and 2.79 µM with HLA-B*44:02 (human).

Consider NATNVVIKV (modifications not checked) [… (SEQ ID NO: 37)], for which the IC50 with HLA-B*07:02 (human) was over 70 µM; with HLA-A*01:01 (human) it was over 70 µM; with HLA-B*18:01 (human), over 70 µM; with HLA-B*51:01 (human) it was 0.536 µM; with HLA-B*44:03 (human), 8.11 µM; with HLA-B*15:01 (human), over 70 µM. Also, the results for the 50% inhibitory concentration (IC50) with HLA-A*26:01 (human) and in the assay with HLA-B*44:02 (human) were 43.4 µM and over 70 µM, respectively.
